Substrate in series [1]: OC[C@H]1O[C@@](CO)(O[C@H]2O[C@H](CO)[C@@H](O)[C@H](O)[C@H]2O)[C@@H](O)[C@@H]1O
Nature of the series: Inhibition of SI-catalyzed hydrolysis of sucrose (SI/sucrose), coupled HK/G6PDH optical test. It is filed as biochemical, hog. Conditions: other: SI/sucrose basic kinetics, substrate, mean, 37° C., pH 7.0.

Substrate in series [2]: OC[C@H]1O[C@H](O[C@H]2[C@H](O)[C@@H](O)[C@H](O)O[C@@H]2CO)[C@H](O)[C@@H](O)[C@@H]1O
Nature of the series: Inhibition of SI-catalyzed hydrolysis of maltose (SI/maltose), coupled HK/G6PDH optical test. Conditions: other: SI/maltose basic kinetics, substrate, mean, 37° C., pH 7.0. Type of series: biochemical, hog.

Usually Km stands for the concentration of substrate that gives half-maximal velocity. The term Vmax denotes the rate approached at saturating substrate.

B1: sucrase/isomaltase (SI) (Sus scrofa) (protein)
chain: MARKKFSGLEISLIVLFAIVTIIAIALVVVLATKTPAVEEISDSTSTPATTRTTTPYPGSGKCPSELNDPINERINCIPDQFPTQTLCATRGCCWKPWNDSIIPWCFFVDNHGYNVEGTTSTNTGLEAKLNRIPSPTLFGDDINSVLLTTQSQTPNRFRFKITDPNNRRYEVPHQFVKEFSGTAASDTLYDVQVIENPFSIKIIRKSNNRILFDTSIGPLVYSDQYLQLSARLSSEYIYGIGEHIHKRFRHDLYWKTWPIFTRDQLPGDNNNNLYGHQTFFMCIEDTSGKSFGVFLMNSNAMEIFIQPTPIVTYRIIGGILDFYIFLGDTPEQVVQQYQELIGRPAMPAYWSLGFQLSRWDYKSLDVVKEVVQRNREAGIPFDTQVTDIDYMEDKKDFTYDHVAFNGLPEFVQDLHDHGQKYVIILDPAISIQKLASGAAYETYDRGTAQNVWINESDGTTAIIGEVWPGLTVYPDFTSPNCIEWWANECSIFHQVVNYDGLWIDMNEVSSFVHGSEKGCSDNKLNYPPFTPGILDKLLYAKTVCMDSVQYWGKQYDVHSLYGYSMAIATEKAVEKVFRNKRSFILTRSTFAGSGSHAAHWLGDNTASWEQMEWSITGMLEFSLFGIPLVGADICGFVVETTEELCRRWMQLGAFYPFSRNHNAQGYEHQDPAFFGQNSLLVNSSKHYLNIRYTLLPFLYTLFYKAHMFGETVVRPILHEFYEDTNSWIEDTQFLWGPSLLITPVLKQGASTVSAYIPNATWYDYETGAKRPWRKQRVDMYLPADKIGLHLRGGYIIPIQQPAVTTTASRKNPLGLIVALDEYNTAEGDFFWDDGETKDTIQNGSYIFYTFSVSNNKLDIMCTHSSYQEGTTLAFETIKILGLIDAVTEVSVVEGDQPMSAHYNFTYDASNQYLLIYNLKFNLGRNFTVQWDQTFLDAEKFTCYPDTDTITKELCEERGCLWQESHLESKAPECFFPKEDNSYLVQSTQYSSLGVTADLQLNTASTRIKLPSDPIPTLRVEVKYHKDYMLQFKIYDPQNKRYEVPVPLNIPTTPTSTYENRLYDVEIKENPFGIQIRRRSTGKVIWDSRLPGFAFNNQFIQISTRLPSEYIYGFGEVEHTAFKRDLNWNTWGMFTRDQPPGYKLNSYGFHPYYMALEDESHAHGVLLLNSNAMDVTFQPTPALTYRIIGGILDFYMFLGPSPEVATKQYHEVIGRPVMPPYWALGFQLCRYGYRNTSQVEEVYNDMVTAQIPYDVQYTDIDYMERQLDFTIGEEFRELPKFVDKIRNEGMRYIIILDPAISGNETEPYPAFDRGQEKDVFVKWPNTSDICWAKVWPDLPNVTIDESLTEDEAVNASRAHVAFPDFFRNSTAEWWAREIIDFYNNQMKFDGLWIDMNEPSSFVNGTTTNQCRNTELNYPPYFPELTKRTEGLHFRTMCMETEQILSDGSSVLHYDVHNLYGWSQVKPTYDALQKATGKRGIVISRSTYPTAGRWAGHWLGDNYAKWDNLDKSIIGMMEFSLFGISYTGADICGFFNNSEYQLCARWMQLGAFYPYSRNHNIAFTRRQDPASWNETFSEMSRNILNIRYTLLPYFYTQMHEIHAYGGTVIRPLLHEFFNEKPTWDIFKQFLWGPAFLVTPVLEPFADTVQGYVPNARWFDYHTGKDIGIRETFHIFSAPLYEINLHVRGGHILPCQEPAQNTFFSRQNFMKLIVAADDNQTAQGNLFWDDGETIDTYERDLYFLVQFNFNKSILTSTILKNSYINRNEMRLGYVLIWGKEKTSVNEVNLIYNGNKETVPFVEDLNQEILNIDLRGLNVTLDEPIEISWS
notes: isolated by papain digestion from hog small intestine mucosa and enriched by ammoniumsulfate precipitation; from tissue; host or cells: hog small intestine mucosa
Consider B1, for which, in series [1], the Km amounted to 58.8 ± 11.4 mM and the Vmax worked out at 7700 µM/min. In series [2], the Michaelis-Menten constant (Km) turned out to be 11.2 ± 2.6 mM and the Vmax worked out at 5900 µM/min.

The record behind these values is patent US7056900B2, “Disaccharide derivatives for treating hyperglycaemia” (Sudzucker Aktiengesellschaft Mannheim Ochsenfurt, priority 1997, dated 2006).
